Reference: PMC8206089, “Split NanoLuc technology allows quantitation of interactions between PII protein and its receptors with unprecedented sensitivity and reveals transient interactions” (Scientific Reports, 2021)

T1: NAGK-SmBiT (N-acetyl-L-glutamate kinase fused to Small BiT) (Synechocystis sp. PCC 6803, UniProt P73326 1-297)
T1 construct: N-acetyl-L-glutamate kinase (NAGK), Synechocystis sp; PCC 6803; Cloned into pTEV5 (NdeI, BamHI); source: E. coli Lemo21, purified (Ni-NTA HisTrap); not shown: SmBiT (after a 16 amino acids flexible linker), C-terminal, kept
T1 sequence (looked up): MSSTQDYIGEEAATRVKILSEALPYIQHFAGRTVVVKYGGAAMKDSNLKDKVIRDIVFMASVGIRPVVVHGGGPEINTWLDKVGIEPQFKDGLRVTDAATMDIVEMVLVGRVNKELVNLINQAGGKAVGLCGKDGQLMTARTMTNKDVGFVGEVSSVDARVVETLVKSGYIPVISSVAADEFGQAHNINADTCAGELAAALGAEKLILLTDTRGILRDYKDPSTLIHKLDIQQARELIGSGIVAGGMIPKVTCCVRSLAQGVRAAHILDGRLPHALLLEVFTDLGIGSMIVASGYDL

T2: NAGK (as used in the Biolayer interferometry of ref. 17) (UniProt P73326 1-297)
T2 construct: N-acetyl-L-glutamate kinase
T2 sequence (looked up): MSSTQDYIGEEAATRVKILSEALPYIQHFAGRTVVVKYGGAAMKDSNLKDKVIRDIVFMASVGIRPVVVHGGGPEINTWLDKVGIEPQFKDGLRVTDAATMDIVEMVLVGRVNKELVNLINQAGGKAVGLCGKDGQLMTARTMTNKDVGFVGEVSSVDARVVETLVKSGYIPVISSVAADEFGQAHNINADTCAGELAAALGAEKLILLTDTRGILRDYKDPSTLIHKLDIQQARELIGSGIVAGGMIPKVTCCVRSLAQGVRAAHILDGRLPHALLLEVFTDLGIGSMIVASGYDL


Legend:
[1] = biological target: T1, NAGK-SmBiT (N-acetyl-L-glutamate kinase …); assay: split reporter (BiFC, NanoBiT); in solution; NAGK-SmBiT titrated to 10 pM PII-LgBiT; 2 mM ADP and 50 mM NAG; 40 min at 30 °C; conditions: both partners purified
[2] = biological target: T1, NAGK-SmBiT (N-acetyl-L-glutamate kinase …); assay: split reporter (BiFC, NanoBiT); in solution; NAGK-SmBiT titrated to 10 pM PII-LgBiT; 2 mM ATP, 2 mM Arg and 2 mM NAG; 40 min at 30 °C; conditions: both partners purified
[3] = biological target: T1, NAGK-SmBiT (N-acetyl-L-glutamate kinase …); assay: split reporter (BiFC, NanoBiT); in solution; NAGK-SmBiT titrated to 10 pM PII-LgBiT; 2 mM ADP and 2 mM NAG; 40 min at 30 °C; conditions: both partners purified
[4] = biological target: T1, NAGK-SmBiT (N-acetyl-L-glutamate kinase …); assay: split reporter (BiFC, NanoBiT); in solution; NAGK-SmBiT titrated to 10 pM PII-LgBiT variant; 2 mM ATP and 2 mM NAG; 40 min at 30 °C; conditions: both partners purified
[5] = biological target: T1, NAGK-SmBiT (N-acetyl-L-glutamate kinase …); assay: split reporter (BiFC, NanoBiT); in solution; NAGK-SmBiT titrated to 10 pM PII-LgBiT; 2 mM ATP, 2 mM Arg and 50 mM NAG; 40 min at 30 °C; conditions: both partners purified
[6] = biological target: T1, NAGK-SmBiT (N-acetyl-L-glutamate kinase …); assay: split reporter (BiFC, NanoBiT); in solution; NAGK-SmBiT (3-666 nM) titrated to 10 pM PII-LgBiT variant; 2 mM ATP and 2 mM arginine; 40 min at 30 °C; conditions: both partners purified
[7] = biological target: T1, NAGK-SmBiT (N-acetyl-L-glutamate kinase …); assay: split reporter (BiFC, NanoBiT); in solution; NAGK-SmBiT titrated to 10 pM PII-LgBiT variant; 2 mM ATP and 50 mM NAG; 40 min at 30 °C; conditions: both partners purified
[8] = biological target: T1, NAGK-SmBiT (N-acetyl-L-glutamate kinase …); assay: split reporter (BiFC, NanoBiT); in solution; NAGK-SmBiT titrated to 10 pM PII-LgBiT variant; no effector molecules; 40 min at 30 °C; apparent KD; conditions: both partners purified
[9] = biological target: T1, NAGK-SmBiT (N-acetyl-L-glutamate kinase …); assay: split reporter (BiFC, NanoBiT); in solution; NAGK-SmBiT titrated to 10 pM PII-LgBiT variant; 2 mM ATP; 40 min at 30 °C; apparent KD; conditions: both partners purified
[10] = biological target: T1, NAGK-SmBiT (N-acetyl-L-glutamate kinase …); assay: split reporter (BiFC, NanoBiT); in solution; NAGK-SmBiT titrated to 10 pM PII-LgBiT variant; 2 mM ADP; 40 min at 30 °C; apparent KD; conditions: both partners purified
[11] = biological target: T2, NAGK (as used in the Biolayer …); assay: BLI; binding curves of ref. 17 re-calculated here by curve fitting from association and dissociation kinetics (Octet data analysis HT software); apparent KD

Row | Kd [1] [nM] | Kd [2] [nM] | Kd [3] [nM] | Kd [4] [nM] | Kd [5] [nM] | Kd [6] [nM] | Kd [7] [nM] | Kd [8] [nM] | Kd [9] [nM] | Kd [10] [nM] | Kd [11] [nM] | Binder
1 | – | – | – | – | – | – | – | – | – | – | 11.7 ± 0.005 | PII (as used in the Biolayer interferometry of ref. 17) (natural protein, UniProt Q55247 1-112, looked up, PII signalling protein) MKKVEAIIRPFKLDEVKIALVNAGIVGMTVSEVRGFGRQKGQTERYRGSEYTVEFLQKLKIEIVVDEGQVDMVVDKLVSAARTGEIGDGKIFISPVDSVVRIRTGEKDTEAI
2 | – | – | – | 4.1 | – | 1.56 | 0.68 | 12.9 | 7 | 11.7 | – | PII-I86N-LgBiT (PII variant I86N fused to Large BiT) (natural protein, Synechocystis sp. PCC6803, UniProt Q55247 1-112, looked up, PII signalling protein, Synechocystis sp; PCC 6803, variant I86N; Same fusion as m1 with I86N; the text once words the change as 'IIe86 to Asp86'; source: E. coli Lemo21, purified (Strep-Tactin Superflow); not shown: Strep-tag, internal (between PII and LgBiT), kept; LgBiT, C-terminal, kept) MKKVEAIIRPFKLDEVKIALVNAGIVGMTVSEVRGFGRQKGQTERYRGSEYTVEFLQKLKIEIVVDEGQVDMVVDKLVSAARTGENGDGKIFISPVDSVVRIRTGEKDTEAI

Continued, binder first:

Row | Binder | Kd [1] [nM] | Kd [2] [nM] | Kd [3] [nM] | Kd [4] [nM] | Kd [5] [nM] | Kd [6] [nM] | Kd [7] [nM] | Kd [8] [nM] | Kd [9] [nM] | Kd [10] [nM] | Kd [11] [nM]
3 | PII-LgBiT (wild-type PII protein from Synechocystis sp. PCC6803 fused to Large BiT) (natural protein, UniProt Q55247 1-112, looked up, PII signalling protein, Synechocystis sp; PCC 6803; LgBiT is fused at the C-terminally located Strep-tag purification linker of PII; cloned in pASK-IBA3; also called PII (WT); source: E. coli Lemo21, purified (Strep-Tactin Superflow); not shown: Strep-tag, internal (between PII and LgBiT), kept; LgBiT, C-terminal, kept) MKKVEAIIRPFKLDEVKIALVNAGIVGMTVSEVRGFGRQKGQTERYRGSEYTVEFLQKLKIEIVVDEGQVDMVVDKLVSAARTGEIGDGKIFISPVDSVVRIRTGEKDTEAI | 1.2 | 16.5 | 14.9 | 4.7 | 9.5 | 17.8 | 0.74 | 12.9 | 8.8 | 30.8 | –
4 | PII-S49E-LgBiT (phosphomimetic T-loop variant of PII fused to Large BiT) (natural protein, Synechocystis sp. PCC6803, UniProt Q55247 1-112, looked up, PII signalling protein, Synechocystis sp; PCC 6803, variant S49E; Same fusion as m1 with S49E; also called S49E PII variant; source: E. coli Lemo21, purified (Strep-Tactin Superflow); not shown: Strep-tag, internal (between PII and LgBiT), kept; LgBiT, C-terminal, kept) MKKVEAIIRPFKLDEVKIALVNAGIVGMTVSEVRGFGRQKGQTERYRGEEYTVEFLQKLKIEIVVDEGQVDMVVDKLVSAARTGEIGDGKIFISPVDSVVRIRTGEKDTEAI | – | – | – | 10.7 | – | 432 | 3.39 | 133 | 155 | 95.3 | –
